Drawing on patent publication US20040197853A1, this text covers In vitro Reactivity with IgE and In vitro Reactivity with IgG for one substance.

The target in assay [1] is monoclonal IgE antibody.
Assay [2] has as its target IgG antibody.

For the substance MTCS (enzyme), the In vitro Reactivity with IgE in assay [1] was below 5%. Further, in assay [2], the In vitro Reactivity with IgG is below 5%.
